{"source": "paper doi:10.1101/2021.07.29.454247", "about": "(bioRxiv, 2021)", "binders": {"B1": {"name": "endogenous PKCγ of mouse brain and neurons (enzyme)", "chain": "not shown"}}, "target": "endogenous TRPM2 of mouse brain (mouse (endogenous in brain), UniProt Q91YD4 1-1506)", "sequence (Q91YD4 whole entry)": "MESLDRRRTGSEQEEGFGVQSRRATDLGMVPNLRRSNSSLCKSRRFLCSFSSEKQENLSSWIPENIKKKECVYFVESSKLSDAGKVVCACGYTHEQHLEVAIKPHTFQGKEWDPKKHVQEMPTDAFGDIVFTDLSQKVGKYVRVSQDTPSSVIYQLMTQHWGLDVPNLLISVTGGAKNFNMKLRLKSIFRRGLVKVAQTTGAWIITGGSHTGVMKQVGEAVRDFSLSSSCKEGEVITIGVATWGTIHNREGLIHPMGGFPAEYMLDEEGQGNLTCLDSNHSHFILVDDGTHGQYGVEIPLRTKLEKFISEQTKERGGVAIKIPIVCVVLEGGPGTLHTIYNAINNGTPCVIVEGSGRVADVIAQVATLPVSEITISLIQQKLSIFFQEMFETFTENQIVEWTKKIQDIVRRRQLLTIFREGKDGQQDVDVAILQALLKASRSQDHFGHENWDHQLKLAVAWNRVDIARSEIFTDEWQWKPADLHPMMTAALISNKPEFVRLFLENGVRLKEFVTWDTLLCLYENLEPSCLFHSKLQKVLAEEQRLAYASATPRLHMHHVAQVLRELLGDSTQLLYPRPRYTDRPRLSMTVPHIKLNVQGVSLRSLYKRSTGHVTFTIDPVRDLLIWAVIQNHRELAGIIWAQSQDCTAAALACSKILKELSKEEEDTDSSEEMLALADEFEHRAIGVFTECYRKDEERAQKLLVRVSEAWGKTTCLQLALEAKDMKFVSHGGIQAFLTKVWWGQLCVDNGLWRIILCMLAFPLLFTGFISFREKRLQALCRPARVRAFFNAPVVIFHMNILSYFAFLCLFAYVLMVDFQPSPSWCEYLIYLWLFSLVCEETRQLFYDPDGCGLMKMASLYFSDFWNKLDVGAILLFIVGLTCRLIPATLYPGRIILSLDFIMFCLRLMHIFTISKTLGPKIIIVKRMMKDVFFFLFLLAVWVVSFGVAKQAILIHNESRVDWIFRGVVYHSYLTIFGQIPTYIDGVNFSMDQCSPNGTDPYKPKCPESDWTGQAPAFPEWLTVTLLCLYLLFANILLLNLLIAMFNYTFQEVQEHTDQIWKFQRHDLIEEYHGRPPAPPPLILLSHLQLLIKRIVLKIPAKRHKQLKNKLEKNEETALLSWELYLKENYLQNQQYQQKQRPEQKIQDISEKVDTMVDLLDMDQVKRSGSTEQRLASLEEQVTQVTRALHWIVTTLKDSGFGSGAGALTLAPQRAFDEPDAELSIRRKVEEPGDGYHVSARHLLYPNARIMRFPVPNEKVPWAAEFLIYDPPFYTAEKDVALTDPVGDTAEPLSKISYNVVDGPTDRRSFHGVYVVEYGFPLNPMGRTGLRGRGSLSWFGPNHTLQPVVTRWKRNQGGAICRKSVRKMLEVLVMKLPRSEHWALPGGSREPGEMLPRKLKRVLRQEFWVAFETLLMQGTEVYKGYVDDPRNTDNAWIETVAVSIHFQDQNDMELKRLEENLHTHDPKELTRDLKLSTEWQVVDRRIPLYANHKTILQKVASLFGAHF", "experiment": "co-IP"}
{"binder": "B1", "values": [{"measurement": "fold of PKCγ pulled down by anti-TRPM2, MCAO against sham", "result": "~1.5", "unit": "fold"}]}
